Measurements taken from patent publication US20250257130A1 (NONA BIOSCIENCES SUZHOU, published 2025).

How the values were obtained:
[1] = biological target: T1, human ROR1 on cells (HEK293T-hROR1, PANC-1, A549) (human, UniProt Q01973 30-937); assay: flow cytometry, PANC-1 cells
T1 construct: whole, on cells; one molecule for the three cell lines; also called huROR1; cell surface ROR1
Method: (§1) In brief, anti-ROR1 antibodies were serially diluted in staining buffer (PBS containing 2% FBS). Antibody solution was incubated with 1×10⁵ cells at 4° C. for 1 hour. […] After 1-hour incubation at 4° C., cells were washed twice with staining buffer and subjected to flow cytometry. PR000374 (Bench marker 1) and non-relevant IgG isotype control (Crownbio) were used as positive and negative controls, respectively.

[2] = biological target: T2, Human ROR1-ECD-his (Acro Biosystems RO1-H522y) (human, UniProt Q01973 30-406); assay: BLI in-tandem competition; competitor: PR303189
T2 construct: extracellular domain; bought protein; also called hROR1-ECD-his; hu-ROR1-ECD-his
From the text: (§2) To determine if anti-ROR1 antibodies bind to human ROR1 on different or approximate binding epitopes, the ForteBio Octet® RED96e platform was used to perform epitope competition experiments on the anti-ROR1 antibodies. Human ROR1 protein (Acrobiosystems, #RO1-H522y) was biotinylated and then captured onto SA biosensors (ForteBio, #18-5020) to reach loading level of 0.3-0.4 nm. The in-tandem competition assay format was applied and it contains two association steps. Firstly, the antigen-loaded biosensors bind to each antibody (a.k.a, First antibody, 1st Ab) with a saturating concentration of 200 nM for 180 seconds to reach equilibrium and then secondly bind to the competing antibodies (a.k.a, Second antibody, 2nd Ab) of 200 nM for 180 seconds. The second binding signals were recorded as the 100% signal of each antibody when the first antibodies were replaced by kinetics buffer. All the binding data were analyzed using ForteBio Data Analysis 11.0 software. The inhibition rate is calculated by the following formula: […]

[3] = biological target: T2, Human ROR1-ECD-his (Acro Biosystems …); assay: BLI in-tandem competition; competitor: PR303191
From the text: as §2

[4] = biological target: T2, Human ROR1-ECD-his (Acro Biosystems …); assay: BLI in-tandem competition; competitor: PR303125
From the text: as §2

[5] = biological target: T1, human ROR1 on cells (HEK293T-hROR1, …); assay: flow cytometry on HEK293T-hROR1 cells, MFI (Mean)
Method: Binding of recombinant anti-ROR1 antibodies to human or cynomolgus ROR1-overexpressing cells was tested by flow cytometry. In this example, ROR1-expressing cell lines are HEK293T cell lines that had been transfected to express human ROR1 on the surface (HEK293T-hu ROR1, KYINNO BIOTECHNOLOGY CO., LTD, Catalog #KC-1018), CHO-K1 cell lines that had been transfected to express cynomolgus ROR1 (CHOK1-cyno ROR1), PANC-1 (ATCC, catalog: CRL-1469) or A549 cell lines (Shanghai Institute of Biochemistry and Cell Biology, Chinese Academy of Sciences).
as §1

[6] = biological target: T2, Human ROR1-ECD-his (Acro Biosystems …); assay: ELISA, plate coated with hu-ROR1-his at 1 µg/mL
Method: Binding of recombinant anti-ROR1 antibodies to hu-ROR1-ECD-his was tested by ELISA. In brief, 1 μg/mL hu-ROR1-ECD-his was added to the 96-well plate, 100 μL each well, incubated at 4° C. overnight, washing the plates with 1×PBST 3 times, 300 ul/well, blocking the plates with 2% BSA in 1×PBST, 200 ul/well at 37° C. for 1 hour, anti-ROR1 antibodies were serially diluted in staining buffer (PBS containing 2% BSA). Antibody solution was added to the plate and incubates at 37° C. for 1 hour, washing the plates with 1×PBST 3 times, 300 ul/well, adding secondary antibody 100 ul/well and incubate at 37° C. for 1 hour, washing the plates with 1×PBST 3 times, 300 ul/well and then add 100 ul/well TMB for about 5 min, stop the reaction by adding 100 ul/well 2M H₂SO₄, read the plates with Molecular device spectra max plus384 at 450 nm and 570 nm.

[7] = biological target: T3, hu-ROR2-ECD-his (Acrobiosystems RO2-H52E5) (human, UniProt Q01974 34-403); assay: ELISA, plate coated with hu-ROR2-his at 1 µg/mL
T3 construct: extracellular domain; bought protein; also called Human ROR2 his-tagged protein; Human ROR2, His Tag
Outline: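 Plates were coated overnight at 4 °C with 1 μg/mL human ROR2-ECD-his and blocked with 2% BSA. Serially diluted anti-ROR1 antibodies were bound for 1 h at 37 °C, then secondary antibody for 1 h at 37 °C. Detection was by TMB (~5 min), stopped with H2SO4, and read at 450/570 nm.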

[8] = biological target: T2, Human ROR1-ECD-his (Acro Biosystems …); assay: BLI in-tandem competition; competitor: PR303147
From the text: as §2

[9] = biological target: T4, cynomolgus ROR1 on CHO-K1-cynoROR1 cells (cynomolgus monkey, UniProt A0A2K5WTX7 30-937); assay: flow cytometry, CHO-K1-cynoROR1 cells
T4 construct: whole, on cells
Method: as §1

[10] = biological target: T1, human ROR1 on cells (HEK293T-hROR1, …); assay: flow cytometry, HEK293T-hROR1 cells
Method: as §1

[11] = biological target: T2, Human ROR1-ECD-his (Acro Biosystems …); assay: ELISA, coated hu-ROR1-ECD-his

T2 sequence (Q01973 30-406): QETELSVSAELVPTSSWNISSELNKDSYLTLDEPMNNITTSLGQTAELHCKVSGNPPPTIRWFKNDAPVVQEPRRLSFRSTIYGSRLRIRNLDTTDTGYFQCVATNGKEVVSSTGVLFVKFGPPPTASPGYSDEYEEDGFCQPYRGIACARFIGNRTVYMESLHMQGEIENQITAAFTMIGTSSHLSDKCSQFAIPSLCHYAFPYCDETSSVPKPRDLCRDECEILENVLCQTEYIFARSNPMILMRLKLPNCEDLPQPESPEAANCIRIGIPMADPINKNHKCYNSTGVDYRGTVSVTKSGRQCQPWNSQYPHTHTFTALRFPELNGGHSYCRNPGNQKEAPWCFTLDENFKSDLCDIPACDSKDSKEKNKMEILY
T1 sequence (Q01973 30-937): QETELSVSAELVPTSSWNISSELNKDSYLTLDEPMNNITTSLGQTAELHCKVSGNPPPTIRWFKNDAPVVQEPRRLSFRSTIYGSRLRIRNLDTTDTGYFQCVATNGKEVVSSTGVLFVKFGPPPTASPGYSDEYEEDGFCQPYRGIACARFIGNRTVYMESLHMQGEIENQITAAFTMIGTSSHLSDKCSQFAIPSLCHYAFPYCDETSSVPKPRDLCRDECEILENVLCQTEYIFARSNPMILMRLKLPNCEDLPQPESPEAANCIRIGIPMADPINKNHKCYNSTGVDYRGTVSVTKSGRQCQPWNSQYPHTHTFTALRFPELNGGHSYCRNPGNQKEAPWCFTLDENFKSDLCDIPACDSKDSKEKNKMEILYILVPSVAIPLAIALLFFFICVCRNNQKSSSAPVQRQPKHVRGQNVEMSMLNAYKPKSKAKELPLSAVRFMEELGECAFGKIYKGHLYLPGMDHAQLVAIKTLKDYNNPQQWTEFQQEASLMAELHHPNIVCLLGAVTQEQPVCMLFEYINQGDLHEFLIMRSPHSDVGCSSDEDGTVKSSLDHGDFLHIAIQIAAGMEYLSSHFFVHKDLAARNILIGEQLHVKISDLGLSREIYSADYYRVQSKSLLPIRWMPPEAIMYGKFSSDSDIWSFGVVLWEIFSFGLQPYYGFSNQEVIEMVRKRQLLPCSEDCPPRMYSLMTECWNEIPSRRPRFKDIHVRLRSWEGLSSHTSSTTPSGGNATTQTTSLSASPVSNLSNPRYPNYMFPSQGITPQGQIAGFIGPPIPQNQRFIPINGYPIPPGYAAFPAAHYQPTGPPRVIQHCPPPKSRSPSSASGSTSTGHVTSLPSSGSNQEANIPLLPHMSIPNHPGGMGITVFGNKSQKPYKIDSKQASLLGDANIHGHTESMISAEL
T3 sequence (Q01974 34-403): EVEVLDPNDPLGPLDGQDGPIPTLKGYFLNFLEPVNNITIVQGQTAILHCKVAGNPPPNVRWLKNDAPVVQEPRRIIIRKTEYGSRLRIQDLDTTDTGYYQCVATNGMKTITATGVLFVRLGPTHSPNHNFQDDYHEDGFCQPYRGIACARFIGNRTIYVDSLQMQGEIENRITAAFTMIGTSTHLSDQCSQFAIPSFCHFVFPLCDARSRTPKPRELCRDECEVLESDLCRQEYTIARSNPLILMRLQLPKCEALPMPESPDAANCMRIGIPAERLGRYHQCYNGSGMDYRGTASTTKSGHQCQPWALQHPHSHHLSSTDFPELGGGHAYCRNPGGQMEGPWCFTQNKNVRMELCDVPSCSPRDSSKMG

B1: PR303125 (antibody, human IgG1, V domains shown)
VH: EVQLLESGGGLVQPGGSLRLSCAASGFTFSSHAMSWVRQAPGKGLEWVSAISGSGDSTHYAASVKGRFTISRDNSKNTLYLQMNSLRAEDTAVYYCETLLRFLESLGNDGFKIWGQGTMVTVSS
notes: HCAb (heavy chain-only, human IgG1 Fc), no light chain
With B1 the EC50 [1] was 0.463 µg/mL, the “MAX(MFI)” value [1] was 883000 MFI and the “Inhibition (%)” value [2] was -24%. The “Inhibition (%)” value [3] was 109%, the “Inhibition (%)” value [4] was 104% and the “EC50 (read off the curve)” value [5] was roughly 0.3 µg/mL. For the same binder, the “EC50 (read off the curve)” value [6] was roughly 0.002 µg/mL, the binding result [7] was “no binding (tested: about 15 µg/ml)” and the “Inhibition (%)” value [8] was -88%. The EC50 [9] was 0.222 µg/mL, the “MAX(MFI)” value [9] was 8.27e+06 MFI and the EC50 [10] was 0.273 µg/mL. The “MAX(MFI)” value [10] was 1.5e+07 MFI and the EC50 [11] was 0.002 µg/mL.

B2: PR303191 (antibody, human IgG1, V domains shown)
VH: EVQLLESGGGLVQPGGSLRLSCAASGFIFGSYAMSWVRQAPGKGLEWVSGISGTGGNTYYADSVKGRFTISRDNSKNTLYLQMNSLRAEDTAVYFCERGITIHGVVIIPPDYRGQGTLVTVSS
notes: as for B1
With B2 the “MAX(MFI)” value [1] was 364000 MFI, the “Inhibition (%)” value [2] was -99% and the “Inhibition (%)” value [3] was 80%. For the same binder, the “Inhibition (%)” value [4] was 80%, the “EC50 (read off the curve)” value [5] was roughly 0.04 µg/mL and the “EC50 (read off the curve)” value [6] was roughly 0.0007 µg/mL. For the same binder, the binding result [7] was “no binding (tested: about 15 µg/ml)”, the “Inhibition (%)” value [8] was -60% and the EC50 [9] was 0.03 µg/mL. For the same binder, the “MAX(MFI)” value [9] was 9.24e+06 MFI, the EC50 [10] was 0.044 µg/mL and the “MAX(MFI)” value [10] was 1.4e+07 MFI. It also gave an EC50 [11] of 0.001 µg/mL.

B3: PR000374 (antibody, human IgG1, kappa, V domains shown)
VH: EVQLVESGGGLVQPGRSLRLSCTASGSDINDYPITWVRQAPGQGLEWIGFINSGGSTWYASWVKGRFTISRDDSKSIAYLQMNSLKTEDTAVYYCARGYSTYYRDFNIWGQGTLVTVSS
VL: DIQMTQSPSSLSASVGDRVTINCQASQSIDSNLAWFQQKPGQPPKLLIYRASNLASGVPDRFSGSGSGTDFTLTISSLEAEDVATYYCLGGVGAVSYRTSFGGGTKVEIKR
notes: positive control; also called Bench marker 1
B3 was tested, and the EC50 [1] was 0.905 µg/mL, the “MAX(MFI)” value [1] was 442000 MFI and the “Inhibition (%)” value [2] was -52%. For the same binder, the “Inhibition (%)” value [3] was -34%, the “Inhibition (%)” value [4] was -45% and the “EC50 (read off the curve)” value [5] was roughly 0.5 µg/mL. For the same binder, the “EC50 (read off the curve)” value [6] was roughly 0.0008 µg/mL, the binding result [7] was “no binding (tested: about 15 µg/ml)” and the “Inhibition (%)” value [8] was -72%. The EC50 [9] was 0.314 µg/mL, the “MAX(MFI)” value [9] was 1.05e+07 MFI and the EC50 [10] was 0.506 µg/mL. For the same binder, the “MAX(MFI)” value [10] was 1.49e+07 MFI and the EC50 [11] was 0.001 µg/mL.
